From the DeepSol protein solubility set

Assay: soluble on expression in E. coli; label from the status in PepcDB or PDB records
With “MCINIRLEKTRDIQSIHAITIAAFLDAPHTDHTEQFIVDALRDSGALSVSLIAEDSSKIIGHVALSPVTISDGSKDWYGLGPISVVPTDQNKGIGSKLMHAALRELNNLNANGCVLLGDPNYYRRFGFEPIGGLVLPDVPPEYFQATLLKGSYPTGVVTYHESFSAQS” the “soluble on expression in E. coli” value was “not soluble”. In the case of MCMPLLPGEQQHLLIDRLEKRVPTAAGEGATTKL, the “soluble on expression in E. coli” value is reported as “not soluble”. In the case of “MCMTRQPAVAGQFYTDEPKRLRGDLQRMIPAETMKQRVKGIVAPHAGYVYSGHVAGAVYGAIEIPSTVVILGPNHHGFGAAAALYPEGEWLTPLGSVPIDVRLSQLVQKHVPLVEPEMSAHRFEHSLEVQVPFLQYRADVSIVPICLGFGDYERCRLLGEGIARAIREFGEDVLIVASSDMTHYESADAARAKDEQAIAEVLALNPEGLVQICRRKNITMCGVIPATVMLVTAKALGASKAELISYATSGDVTGDNRQVVAYAAMAVYLEHHHHHH”, the “soluble on expression in E. coli” value is reported as “not soluble”. In the case of “MCMYGGIYVNNGYSPMSSNQQNVSVEHDIIMRGRRVIDITGVKQVESFDSEEFLLETVMGFLTIRGQNLQMKNLDVEKGVVSIKGKVHEMLYIDENQGEKTKGFFSKLFKLEHHHHHH”, the “soluble on expression in E. coli” value is reported as “soluble”. In the case of “MCSSDSLQLHNVFVYGSFQDPDVINVMLDRTPEIVSATLPGFQRFRLKGRLYPCIVPSEKGEVHGKVLMGVTSDELENLDAVEGNEYERVTVGIVREDNSEKMAVKTYMWINKADPDMFGEWNFEEWKRLHKKKFIETFKKIMECKKKPQGQGNDDISHVLREDQ”, the “soluble on expression in E. coli” value is reported as “soluble”. With “MDAAIKKIPYGMTDFERIILENYYYVDKTQYIAKVEKVTSFFFFVRPRRFGKSLFLNMLGLYYDINQKDKFEKIFGNLYIGKHPTPDRNKYLVLTLNFSSVAANMDRLEETFNTYCKIVMDGFAERNAHLLGKEAVEKLHELKTGDALLGSLCQSAQNKGQKIYLILDEYDNFANNILVDYGNKRYRSITHGSGFFRSFLKVVKDYSSSVIERIFLTGVSPVTMDDLTSGFNIADNYSSSPIFNNMMGFNEQEVRTLIDYYKSYRELPHTTDELITIMKPWYDNYCFAMKALKEPSMYNSDMVLYFMNHYMLNEDIPDNMLDANIRTDYNKLRHLIHVDKTFGENASVVQEIVEKGSTTGIIANSFPAEDIIKPENFKSLLYYYGMLTISGMEMGEPILSVPNWAVREQLYGYMADIYKDSADLYLETDKLVDRMKRMAYKGEWENCFTYIADRLNAQSSVRDFIEGEAYVKTFILAYLGLTHYYIARPEYESNKGYADIFLQPRLLQLPDMVYSYCIEVKYAKRDASDTEIEKLLSNAKIQLKQYAASEWIHQDKGTTELKSIALVFQGWKLVRVEEV” the “soluble on expression in E. coli” value was “not soluble”. In the case of “MDAGYFRGANSEQDGRFSDKEKKLLKTMKFEPQLEQKIDLNRCNMDVIKPWITARVNDILGMEDDVVVEYILSQIDDKNLNPKLLQINVTGFLNARRAREFVGDLWNLLIEANASEDGIPASLVNQKMAEMKTNDRDEKGDDREDNDWTNRYKTLSNGRYTGPAREKAVRDDRIPARALSPRKTPPRRNASPGGDGGGGSPAARRGGSAGNRRRSPPRRGSPRRGSPRRDTRRSPPRRRGSPPARGGDRRDRREDRRPVRDEKEREEESRRREIERKKRHEEAELRQKAIASVAARAKSGSPRRRRSPSASKSPPPARRRRSPSQSKSPAPKRAKSRSKSPPAPARRRRSPSASKSPPPAPKRAKSRSKSPPARRRRSPSASKSPPAPRRRRSPSKSRSPAPKREIPPARRRRSPSASKSPPAPKRAKSRSKSPPAPRRRRSPSQSKSPAPRRRRSPSKSPQAPRRRRSPSGSKSRSPRRRRSPAAAPRRRQSPQRRRSPRRRRSPSSSSRSRSPPPPPRRPRQDSEQQAPVAVKSPEMKKRRPNDTDSDVSVDSEAEEERRRKKAKKEKKAAKKHKKEKKSKKHRKRRSPSASESGSESD”, the “soluble on expression in E. coli” value is reported as “soluble”. With “MDAKVYVGGLPSDATSQELEEIFDRFGRIRKVWVARRPPGFAFVEYDDVRDAEDAVRALDGSRICGVRARVELSTGQRRGGGGRGGGFGGRGGGGRDRSPYRGDRGRSRSRSRDRGRDRSRDRSRDRSRDRSRDRSRERSRERERTRSRSRSPQERDRSHSKSRSRSRSRSRSRSASPH” the “soluble on expression in E. coli” value was “soluble”. For “MDALEGESFALSFSSASDAEFDAVVGYLEDIIMDDEFQLLQRNFMDKYYLEFEDTEENKLIYTPIFNEYISLVEKYIEEQLLQRIPEFNMAAFTTTLQHHKDEVAGDIFDMLLTFTDFLAFKEMFLDYRAEKEGRGLDLSSGLVVTSLCKSSSLPASQNNLRHGHHHHHH”, the “soluble on expression in E. coli” value was “not soluble”. In the case of “MDASIEKRPRTRLSPQKRKLQLMEIALEVFAKRGIGRGGHADIAEIAQVSVATVFNYFPTREDLVDDVLNFVVRQYSNFLTDHIDLDLDVKTNLQTLCKEMVKLAMTDCHWLKVWFEWSASTRDEVWPLFVSTNRTNQLLIRNMFMKAMERGELCEKHDVDNMASLFHGIFYSIFLQVNRLGEQEAVYKLADSYLNMLCIYKN”, the “soluble on expression in E. coli” value is reported as “soluble”. In the case of “MDASYSSSRPKKLNYTSYTSLKSVLKFLSVKKREQIHIHIPELRSVNALLPYAHEEVILDKFEIMIQNRSYLFKKLAEKAPKPEGVARRRPEYEYAEYNRLLVMDLGPPSLFDMNDLHHLWRPMGNQGPDRLSFGDLDSLEKRRLRFRRENRLQDSSEHGRTGNCEITISEEDGTAITVTKEIPVDIAYEKIFDAFFSNGSRIKLLKVQSFPDFLMRKDLLTLKVREIDCSSTASIDILELAPFLDHSSLKKLTLNVTNTNVDLLMLPLVQNCPVLRIVEAGTFLSRMLKTTLLSALQNQKLEIFPDIVIIESFPQLVQSWATSSRPIGSLVQVGIREDYKEVLDILDFLKESHGAHPAIIKKLENTDFSNGLSMLIDGDLELAIYGGGKISEEGLTRPQPCKWSLCMEVMKRGDTIPR”, the “soluble on expression in E. coli” value is reported as “not soluble”. In the case of “MDDAELRAVRTLISLTTRYFAVFKNAPVIMAVIDDNGKVVDANNAAAELIGEKPSGKHLRELLPAELCEKVLSTLEKALEEEKKANLRAKVSGKLLRVQLTPISADGRKLCLLTGFSVEDELSKAAREILRLAARAGDAETVIKGMAKKFGELELFSQVKVELDGLREVVREKDGEFVYEFPLRMHRKKGRVTLESRKELSSEEIDMLAETFEDVSILISTLELESKLSAEVRRTVELINELREQLKAVTLSLEILENDGLKSIVKERLGKMLQVAERLAGE”, the “soluble on expression in E. coli” value is reported as “not soluble”. For “MDDASPTLASVIIPAFNAEAVLEQAVDSVRASIAHCAAHLAAAPAGAFEIILVDDASTDATLALARRLAAEDPRITVIARRRNGGAGPARNAGARAAKGEILFYLDADDGFLPPHVLACLQELLRHPEAGLVKTGIAVDFPLTEEWRQALIVSVVFNTALWKRCHEAIGGFMEDPELCVLRCEDVFYCDLLMRAFPARGIEAQTVRHTLRPGGAFDGQRAKFSAPPGEGPESLTPAQSAVLPLIRARHAERLARLGLEDAEALEHHHHHH”, the “soluble on expression in E. coli” value was “not soluble”. For “MDDIRKIERLAAASWPAYFQKSIGKWLLRANFGVTKRANSVWTSADMPEGDFQLEAELFYQSLGLPVCFHISNASPKGLDDALADSRYEKVDECFQMTALCRSIMSRTNDNSRFTYKWEQEPSSVWIDEFIQLEGFSPERHKGYKHIFERMPPCKTFFKMYDKESLTALGTVSVIDGYGGLSNIVVAEEHRGKGAGTQVIRVLTEWAKNNGAERMFLQVMKENLAAVSLYGKIGFSPISEHHYRIKRLEHHHHHH”, the “soluble on expression in E. coli” value was “not soluble”. With “MDDYMVLRMIGEGSFGRALLVQHESSNQMFAMKEIRLPKSFSNTQNSRKEAVLLAKMKHPNIVAFKESFEAEGHLYIVMEYCDGGDLMQKIKQQKGKLFPEDMILNWFTQMCLGVNHIHKKRVLHRDIKSKNIFLTQNGKVKLGDFGSARLLSNPMAFACTYVGTPYYVPPEIWENLPYNNKSDIWSLGCILYELCTLKHPFQANSWKNLILKVCQGCISPLPSHYSYELQFLVKQMFKRNPSHRPSATTLLSRGIVARLVQKCLPPEIIMEYGEEVLEEIKNSKHNTPRKKTNPSRIRIALGNEASTVQEEEQDRKGSHTDLESINENLVESALRRVNREEKGNKSVHLRKASSPNLHRRQWEKNVPNTALTALENASILTSSLTAEDDRGGSVIKYSKNTTRKQWLKETPDTLLNILKNADLSLAFQTYTIYRPGSEGFLKGPLSEETEASDSVDGGHDSVILDPERLEPGLDEEDTDFEEEDDNPDWVSELKKRAGWQGLCDR” the “soluble on expression in E. coli” value was “soluble”.
